Ends that are not written are not given here. Y‑shaped‑mPEG40KD = Y-shaped methoxy-PEG of 40 kDa attached to the Lys side chain; mPEG40KD = methoxy-PEG of 40 kDa
T1: human amylin receptor 3 (human, UniProt P30988 25-474; O60896 24-148)
T1 construct: whole, on cells; also called AMY3; Human AMY3
T1 sequence (looked up) 1: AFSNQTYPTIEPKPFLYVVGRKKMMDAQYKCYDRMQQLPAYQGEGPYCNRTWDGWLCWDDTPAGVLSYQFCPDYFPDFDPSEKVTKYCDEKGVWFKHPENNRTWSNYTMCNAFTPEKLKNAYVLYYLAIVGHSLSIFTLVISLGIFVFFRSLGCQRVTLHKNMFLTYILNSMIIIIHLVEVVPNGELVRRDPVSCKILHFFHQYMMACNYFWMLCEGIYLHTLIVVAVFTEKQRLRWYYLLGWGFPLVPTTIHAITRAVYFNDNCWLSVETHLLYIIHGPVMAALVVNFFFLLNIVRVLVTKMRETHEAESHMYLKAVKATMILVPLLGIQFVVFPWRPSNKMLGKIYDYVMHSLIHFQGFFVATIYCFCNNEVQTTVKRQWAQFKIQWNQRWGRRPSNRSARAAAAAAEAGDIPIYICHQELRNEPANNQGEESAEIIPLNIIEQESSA
T1 sequence (looked up) 2: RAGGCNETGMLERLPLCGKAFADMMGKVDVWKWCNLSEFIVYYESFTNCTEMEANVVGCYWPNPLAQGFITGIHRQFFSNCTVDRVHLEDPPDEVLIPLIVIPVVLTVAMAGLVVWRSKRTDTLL

T2: amylin receptor of rat nucleus accumbens membranes (rat)
T2 chain 1: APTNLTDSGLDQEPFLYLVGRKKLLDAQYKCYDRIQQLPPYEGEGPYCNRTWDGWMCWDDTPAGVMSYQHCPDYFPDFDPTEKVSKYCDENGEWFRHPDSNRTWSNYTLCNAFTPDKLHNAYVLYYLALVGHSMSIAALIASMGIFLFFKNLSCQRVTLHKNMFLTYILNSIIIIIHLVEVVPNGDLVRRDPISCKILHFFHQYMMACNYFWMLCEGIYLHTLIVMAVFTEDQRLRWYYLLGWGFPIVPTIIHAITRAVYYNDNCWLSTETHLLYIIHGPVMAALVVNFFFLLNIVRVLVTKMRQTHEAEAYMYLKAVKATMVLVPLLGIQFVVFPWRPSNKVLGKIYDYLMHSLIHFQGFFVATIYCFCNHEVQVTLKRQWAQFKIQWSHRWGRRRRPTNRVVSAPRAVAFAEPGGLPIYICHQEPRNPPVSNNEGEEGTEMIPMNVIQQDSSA
T2 chain 2: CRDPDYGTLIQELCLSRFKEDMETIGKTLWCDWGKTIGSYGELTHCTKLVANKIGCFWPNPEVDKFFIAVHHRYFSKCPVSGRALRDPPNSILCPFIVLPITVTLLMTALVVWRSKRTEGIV


Columns and labels:
human amylin receptor 3 [1] = target: T1, human amylin receptor 3; assay: competition with 125I-rat amylin, human AMY3 receptor
human amylin receptor 3 [2] = target: T1, human amylin receptor 3; assay: cell-based or functional assay
[3] = target: T2, amylin receptor of rat nucleus …; assay: competition with 125I-rat amylin, rat nucleus accumbens membranes
[4] = target: T3, amylin receptor of rat nucleus accumbens membranes (rat); assay: as above
T3 construct: whole, on cells; native tissue membranes; also called RNA membranes

Binder	IC50 (human amylin receptor 3 [1]) [nM]	Functional EC50, Human AMY3 (human amylin receptor 3 [2]) [nM]	IC50 [3] [nM]	IC50 [4] [nM]
KCNTATCATQRLANFLVRSSNNLGPVLPPTNVGSNTY-NH2 (ends and bridges not checked, also called Cmpd 49) [rat amylin, KCNTATCATQRLANFLVRSSNNLGPVLPPTNVGSNTY-NH2]	–	–	–	0.1
CNTATCATQRLANFLVHSSNNFGPK(mPEG40KD)LPPTNVGSNTY-NH2 (ends and bridges not checked, also called Cmpd 77) [[K^26(mPEG40KD)]-Cmpd 60]	60	0.078	–	39
CNTATCATQRLANFLVHSSK(mPEG 40 kDa)NFGPILPPTNVGSNTY-NH2 (ends and bridges not checked, also called Cmpd 76) [[K^21(mPEG40KD)]-Cmpd 59]	388	1.75	131	–
CNTATCATQRLANFLVHSSNNFGK(mPEG40KD)ILPPTNVGSNTY-NH2 (ends and bridges not checked, also called Cmpd 81) [[K^25(mPEG40KD)]-Cmpd 63]	48	0.086	31	–
CNTATCATQRLANFLVHSSNNFGPILPPTK(mPEG40KD)VGSNTY-NH2 (ends and bridges not checked, also called Cmpd 78) [[K^31(mPEG40KD)]-Cmpd 61]	80	0.1	61	–
CNTATCATQRLANFLVHSSNNFGPILK(mPEG40KD)PTNVGSNTY-NH2 (ends and bridges not checked, also called Cmpd 83) [[K^28(mPEG40KD)]-Cmpd 65]	46	0.2	53	–
CNTATCATQRLANFLVHSSNNFGPILPPTNK(mPEG40KD)GSNTY-NH2 (ends and bridges not checked, also called Cmpd 92) [[K^32(mPEG40KD)]-Cmpd 58]	1000	24.7	–	–
CNTATCATQRLANFLVHSSNNFGPILPPTNVK(mPEG40KD)SNTY-NH2 (ends and bridges not checked, also called Cmpd 93) [[K^33(mPEG40KD)]-Cmpd 58]	860	1.69	–	–
CNTATCATQRLANFLVHSSNNK(mPEG 40 kDa)GPILPPTNVGSNTY-NH2 (ends and bridges not checked, also called Cmpd 86) [[K^23(mPEG40KD)]-Cmpd 58]	240	2.82	611	–
CNTATCATQRLANFLVHSSNNFGPILPPTNVGSK(mPEG40KD)TY-NH2 (ends and bridges not checked, also called Cmpd 95) [[K^35(mPEG40KD)]-Cmpd 58]	143	0.122	–	–
CNTATCATQRLANFLVHSK(mPEG 40 kDa)NNFGPILPPTNVGSNTY-NH2 (ends and bridges not checked, also called Cmpd 91) [[K^20(mPEG40KD)]-Cmpd 58]	918	5.51	–	–
CNTATCATQRLANFLVHSSNNFGPILPPTNVGSNK(mPEG40KD)Y-NH2 (ends and bridges not checked, also called Cmpd 96) [[K^36(mPEG40KD)]-Cmpd 58]	984	3.07	–	–
KCNTATCATQRLANFLVRSSK(mPEG 40 kDa)NLGPVLPPTNVGSNTY-NH2 (ends and bridges not checked, also called Cmpd 69) [[K^21(mPEG40KD)]-Cmpd 51]	–	–	104	–
KCNTATCATQRLANFLVRSSNNLGPVLPPTK(mPEG40KD)VGSNTY-NH2 (ends and bridges not checked, also called Cmpd 73) [[K^31(mPEG40KD)]-Cmpd 55]	–	–	86	–
CNTATCATQRLANFLVRSSK(mPEG 40 kDa)NLGPVLPPTNVGSNTY-NH2 (ends and bridges not checked, also called Cmpd 70) [[K^21(mPEG40KD)]-Cmpd 52]	–	–	112	–
CNTATCATQRLANFLVHSSNNFGPK(Y‑shaped‑mPEG40KD)LPPTNVGSNTY-NH2 (ends and bridges not checked, also called Cmpd 79) [[K^26(Y-shaped-mPEG40KD)]-Cmpd 60]	1130	1.74	–	132

More lines, now with the values ahead:

IC50 (human amylin receptor 3 [1]) [nM]	Functional EC50, Human AMY3 (human amylin receptor 3 [2]) [nM]	IC50 [3] [nM]	IC50 [4] [nM]	Binder
74	0.082	–	–	CNTATCATQRLANFLVHSSNNFGPK(mPEG40KD)LPPTNVGSNTY-NH2 (ends and bridges not checked, also called Cmpd 88) [[K^26(mPEG40KD)]-Cmpd 58]
–	1.66	148	–	CNTATCATQRLANFLVHSSNK(mPEG 40 kDa)FGPILPPTNVGSNTY-NH2 (ends and bridges not checked, also called Cmpd 85) [[K^22(mPEG40KD)]-Cmpd 58]
111	0.41	79	–	CNTATCATQRLANFLVHSSNNFK(mPEG40KD)PILPPTNVGSNTY-NH2 (ends and bridges not checked, also called Cmpd 80) [[K^24(mPEG40KD)]-Cmpd 62]
77	0.034	–	–	CNTATCATQRLANFLVHSSNNFGPILPPTNVGK(mPEG40KD)NTY-NH2 (ends and bridges not checked, also called Cmpd 94) [[K^34(mPEG40KD)]-Cmpd 58]
47	0.11	27	–	CNTATCATQRLANFLVHSSNNFGPILPK(mPEG40KD)TNVGSNTY-NH2 (ends and bridges not checked, also called Cmpd 84) [[K^29(mPEG40KD)]-Cmpd 66]
238	0.85	–	–	CNTATCATQRLANFLVK(mPEG 40 kDa)SSNNFGPILPPTNVGSNTY-NH2 (ends and bridges not checked, also called Cmpd 90) [[K^18(mPEG40KD)]-Cmpd 58]
685	4.25	599	–	CNTATCATQRLANFLVHSSNNFGPILPPK(mPEG40KD)NVGSNTY-NH2 (ends and bridges not checked, also called Cmpd 87) [[K^30(mPEG40KD)]-Cmpd 58]
87	0.2	51	–	CNTATCATQRLANFLVHSSNNFGPIK(mPEG40KD)PPTNVGSNTY-NH2 (ends and bridges not checked, also called Cmpd 82) [[K^27(mPEG40KD)]-Cmpd 64]
334	2.23	–	–	CNTATCATQRLANFLK(mPEG 40 kDa)HSSNNFGPILPPTNVGSNTY-NH2 (ends and bridges not checked, also called Cmpd 89) [[K^17(mPEG40KD)]-Cmpd 58]
–	–	75	–	CNTATCATQRLANFLVRSSNNLGPVLPPTK(mPEG40KD)VGSNTY-NH2 (ends and bridges not checked, also called Cmpd 74) [[K^31(mPEG40KD)]-Cmpd 56]
–	–	54	–	CNTATCATQRLANFLVRSSNNLGPK(mPEG40KD)LPPTNVGSNTY-NH2 (ends and bridges not checked, also called Cmpd 72) [[K^26(mPEG40KD)]-Cmpd 54]
